B1: TPR t1 (parent)
chain: GACCAAUCUGCCCUCAGAGCUCGAGAACAUCUUCGGAUGCAGAGGAGGCAGGCUUCGGUGGCGCGAUAGCGCCAACGUCCUCAACCUCCAAUGCAUCCCACCACAUGAUGAUGCCUGAAGAGCCUUGGUUUUUUG

Variants of: B1
Assay: polymerase ribozyme fitness, log enrichment relative to wild type (log ratio); higher = more active; in vitro selection for triplet polymerase activity
Method in brief: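 Mutant libraries for each subunit of a heterodimeric triplet polymerase ribozyme were made by PCR and then transcribed. Each library underwent one round of in vitro selection in triplicate: annealing with a biotinylated primer, the partner subunit and triplets, frozen incubation at −7 °C, gel excision of extended constructs, streptavidin-bead capture and RT-PCR. Input and output libraries were Illumina-sequenced, and only genotypes with ≥10 input reads and ≥1 read per output were kept. Fitness is the logarithm, base 2, of genotype enrichment over wild-type enrichment, computed from inverse-variance-weighted replicate averages.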

Row | Variant | polymerase ribozyme fitness (log ratio)
1 | G44A G60C C114A | -2.55
2 | G44C C53A C72U C88U A100U | -0.423
3 | A43G G117U | -4.21
4 | A43U G69A | -5.69
5 | A43C C86U | -2.14
6 | A43U C49U A75U G113C C123U | -3.62
7 | A43U A46U | -2.27
8 | A43U C88G A95U | -3.19
9 | A43G G63A G77C A90G G127U G135C | -3.69
10 | A43U G51U G71A C79A U112G | -6.57
11 | G44A U109G | -5.09
12 | G44C A91C G120A | -0.836
13 | A43U A91U G110A G120C | -5.56
14 | G44A G63A G122A | -2.73
15 | A43U U78C | -1.53
16 | A43U U81A C85G C124U | -4.75
17 | G44A G110C | -4.8
18 | A43G G63U C115U | -4.05
19 | G44A A66G | -1.89
20 | G44A G63U | -1.78
21 | G44C A121C | 0.904
22 | G44A A111U | -4.79
23 | A43G G110C | -2.35
24 | G44A G71U | -1.33

Row | Variant | polymerase ribozyme fitness (log ratio)
25 | G44A U81G U87G A90G | -4.02
26 | A43G G60A G107C C114U G120U U133G | -3.85
27 | A43G A50G C101G C124A U129A | -3.82
28 | A43C G48C C123A | -1.93
29 | G44A U55A C70U C85G G113A | -4.29
30 | A43C G45U C73A A91U G93A U112A G128C | -5.37
31 | G44A C124U | 0.684
32 | A43U C76A G135U | -3.89
33 | A43U G135U | -0.971
34 | G44A A68G C70G C72A G110A G122A C124A | -7.69
35 | G44A C79A U125A | -3.2
36 | A43C G48A C88U | -1.82
37 | A43G G61U C114A G127C U132A | -3.36
38 | A43U A111C | -1.94
39 | A43G G69C A90C | -2.1
40 | A43U A50C C73U U78C C94G | -4.28
41 | A43U A66G | -3.64
42 | A43U C49A G51C C56G G63C U106A | -7.03
43 | G44A C72G C97U G113U G117A | -6.18
44 | G44A A95C C123G U132A | -1.17
45 | A43G G58C C62A C85U | -6.11
46 | A43U G45A C53U C56G C62U A84U | -1.89
47 | A43U A90C G110A A111G U132A | -0.915
48 | A43U G47U A74U | -2.98

Row | Variant | polymerase ribozyme fitness (log ratio)
49 | A43G C70U | -2.76
50 | A43U G48A | -1.56
51 | G44A C89U C114G G127U U132A | -3.64
52 | G44A A95C | -1.35
53 | G44A C73A U87G | -0.428
54 | A43U C53A U129A | -4.05
55 | A43U C85G A95C U112C | -2.22
56 | A43C G48C G113C A119C G120U A121G | -2.55
57 | A43G C101U A108G | -2.96
58 | G44A C72G C114A A121U G127C | -2.5
59 | A43U A83U | -1.8
60 | A43U | -1.2
61 | A43G | -1.32
62 | G44A C99U | -4.58
63 | A43C C85G A90G C98A | -7.04
64 | A43G A74G C89U U109G | -7.22
65 | A43U C56A C73A U109A | -5.95
66 | A43U C76U C123G | -0.376
67 | A43G A121G U129A | -0.572
68 | A43G G71A C82A G120U A121C | -3.35
69 | A43U G45U G110U | -3.95
70 | A43G G69C | -2.38
71 | A43U G93U U112A G127C | -2.82
72 | A43U G58U C62U A74C | -2.24

Row | Variant | polymerase ribozyme fitness (log ratio)
73 | A43C G45A G48C | -3.39
74 | A43G G63C U96C | -2.76
75 | A43G C124G | 0.268
76 | G44A U78G | -1.09
77 | A43C G71U U112C G135A | -1.05
78 | G44A A50U G60A U132C | -2.42
79 | A43G G45U U59A A66U | -5.27
80 | A43G A74C | -2.19
81 | A43G A74U | -2.25
82 | G44A C73G C85A U130A | -3.2
83 | A43G G63C C82G | -4.47
84 | A43U G61A U92A G93C | -1.44
85 | A43G A50C G57U | -2.8
86 | G44A C70G | -4.21
87 | G44A C72A C98U G110A | -4.64
88 | G44A G69C C89U A118U C124G G127C | -0.292
89 | G44C A95G A118G | -1.3
90 | A43G G113A | -2.18
91 | A43U A118U | -1.23
92 | A43G U54C A95U A121C U129A | -2.96
93 | A43U C56U | -1.59
94 | G44A G51A C76A U92A G117C | -6.37
95 | A43U C85A | -2.96
96 | G44A G60U A108U C115A A121U | -4.86

Row | Variant | polymerase ribozyme fitness (log ratio)
97 | A43G G69U C89U | -0.177
98 | A43U G63A A95G G120U G128U | -4.88
99 | A43G G58A C85U U112C | -1.68
100 | A43U A50U U81A A91G U92G | -3.02
101 | G44A G122A G127C | -2.85
102 | A43G G60A | -2.12
103 | G44A G60U A108G | -2.88
104 | G44A G69A C94U | -4.26
105 | G44A A103G | -6.14
106 | G44A A103U | -5.44
107 | A43U C56G U67A G69U G71C A75G C101A G107C C124G | -7.81
108 | A43U U81A C85G | -3.37
109 | A43U A46U G58C G60A | -2.67
110 | A43G G128A | -3.36
111 | A43G G128U | -4.43
112 | G44A A75U A118G | -1.19
113 | G44A C72G A119G U125C | -2.76
114 | A43G U92A | -2.96
115 | G44A C56U C123U G135U | -0.56
116 | A43G G71A A100U | -6.07
117 | G44A G48U U125G | -2.23
118 | A43U U59G G110A | -5.07
119 | A43U G45A G58C G69U | 0.218
120 | G44A U54A C62A U106A | -3.38

Row | Variant | polymerase ribozyme fitness (log ratio)
121 | G44C A83G A111C | -2.73
122 | G44A U78A G93U | -1.85
123 | A43C C72A G122A | -3.17
124 | A43G A46U U55G | -2.46
125 | A43C C72A | -2.05
126 | G44A C53U C82U G117A C124A | -1.14
127 | G44A C62A C88U C89U G128C U129G | -2.95
128 | A43C G63C C102A A121U C123U | -5.76
129 | A43U G45U | -1.71
130 | A43U G71C | -2.56
131 | G44A G48C | -1.44
132 | A43U G44C | -1.05
133 | A43U C56U C79A | -3.22
134 | A43U C73A C104A G113U | -5.13
135 | A43C G77C | -2.27
136 | A43C G77A | -2.79
137 | A43U U129A | -2.81
138 | A43U U87A G117A | -3.08
139 | A43G A108G | -4.26
140 | G44A A118G | -1.56
141 | G44A A118U | -0.0596
142 | A43C G63A U78C C88A A91G C94U U130C | -4.78
143 | A43G C53G G69C | -2.9
144 | A43U U106A A108U U112A | -2.46

Row | Variant | polymerase ribozyme fitness (log ratio)
145 | G44C C49U | -2.11
146 | G44A C82U C101G | -2.82
147 | A43U G120A | -0.64
148 | G44C A111G | -0.351
149 | A43C C73A U81G C86U | -6.91
150 | A43G C53A U109A A119G | -5.89
151 | A43C G44U A111G | -1.62
152 | A43G G60U U78C | -2.18
153 | A43U C49G U54A | -2.2
154 | G44A A90U | -1.45
155 | A43C G61A | -2.52
156 | A43C G60U U78C C104A G120C | -5.55
157 | A43U G48U A50U C62U C88G C101G U112A | -5.19
158 | G44A C70U A83G U96C G110U | -6.41
159 | G44C A46U G58A G117A U130G | -3.81
160 | G44A C72A G110A G122A C124A | -3.56
161 | G44A G71A U87G A90C G135U | -2.38
162 | A43U C82G A119G C123U C124A | -0.662
163 | A43C G44C G71C A118U U133G | -1.6
164 | A43U A74U C104U C115U | -3.23
165 | G44A G61U C99U | -4.04
166 | A43G C89U | -1.2
167 | A43C G120U | -2.7

Reference: the RNAGym collection of RNA variant scans (doi:10.1073/pnas.2313332121)
